Data reported in patent publication US10444224B2, “Method for RNA detection and quantification” (Cornell University, priority 2011, dated 2019).
“Also recorded” adds a separate entry of the source.

Assays:
[1] = system: HEK293T cells expressing 5S-Spinach; assay: Live mammalian cell imaging of Spinach-tagged 5S RNA; format: cell-based, human
Experimental: HEK293 cells cultured on 24-well glass-bottom dishes were transfected with 0.2 μg of pAV-5S construct expressing full length human 5S RNA from its endogenous promoter fused through its 3′ end with either a control sequence (lambda fragment ˜400 nt) or the Spinach aptamer sequence using FuGene 6 (Roche) per manufacturer's instructions. Imaging experiments were performed 48 hours after transfection. Thirty minutes prior to experiment, HEK293 cell media was replaced with imaging media (DMEM with no phenol red or vitamins and supplemented with 25 mM HEPES, 5 mM MgSO4, and 10 μg/ml Hoechst 33342) and 20 μM DFHBI or vehicle were added to the cells to promote RNA-fluorophore complex formation. To induce stress granule formation, cells were treated with 100 mM MgSO4 or 600 mM sucrose for 30 minutes prior to imaging. Live fluorescence images of HEK293 cells were taken with a CoolSnap HQ2 CCD camera through a 100× oil objective mounted on a Nikon TE2000 microscope and analyzed with the NIS-Elements software. A filter cube typically used for fluorescein/EGFP with sputter coated excitation filter 470/40, dichroic mirror 495 (long pass), and emission filter 525/50 (Chroma Technology) was used to detect Spinach.

[2] = literature value used as reference; cited from earlier work
[3] = Tolerance of Spinach stem-loop 2 to mutation, assayed by DFHBI fluorescence; format: biochemical
Experimental: Secondary structure prediction was performed using Mfold online software. Mutated and truncated RNAs were created by ordering single stranded DNA templates (Integrated DNA Technologies) with the desired mutations or truncations and PCR amplifying these sequences to create double stranded DNA templates using primers which included a 5′ T7 promoter sequence. PCR products were then purified with PCR purification columns (Qiagen) and used as templates for in vitro T7 transcription reactions (Epicentre).
To determine if stem-loop 2 primarily has a structural role in Spinach, mutations were introduced at the stem-loop 2 positions shown in FIG. 11A to test the tolerance of Spinach to mutations at these positions. This was assayed by DFHBI fluorescence. In these experiments, the minimized Spinach structure (SEQ ID NO: 8) in which stem-loop 2 is predicted to sit adjacent to the large internal loop (FIG. 11A). […] To determine if stem-loop 2 can be swapped with a different stem-loop with similar stability without perturbing Spinach-induced DFHBI fluorescence, the UUCG loop sequence was replaced with GAAA and the 4-base pair stem was replaced with a different but still complementary 4-base pair stem (FIG. 11A, SEQ ID NO: 9). […] However, when mismatched bases were inserted in the stem region to prevent the formation of a duplex, DFHBI fluorescence was lost (FIG. 11B).

[4] = Spinach-based RNA sensor fluorescence in response to guanine; format: biochemical
[5] = Excitation and emission spectra of the 24-2-DFHBI complex; format: physicochemical; details: 24-2 bound to DFHBI
Source text: Unless otherwise stated, all chemistry reagents were purchased from Acros Organics and all cell culture reagents were purchased from Invitrogen. Commercially available starting reagents were used without further purification. DFHBI was synthesized as described in PCT Application Publ. No. WO/2010/096584 to Jaffrey and Paige; Paige and Jaffrey, “RNA Mimics of Green Fluorescent Protein,” Science 333(6042):642-646 (2011), each of which is hereby incorporated by reference in its entirety. Flash chromatography was conducted with 200-400 mesh silica gel 60 (EMD) and with ACS or HPLC grade solvents (Fisher). NMR spectra were recorded on a Bruker DMX-500 spectrometer at 500 MHz. Chemical shifts were reported as parts per million (ppm) downfield from an internal tetramethylsilane standard ([…] for ^1H NMR) or from solvent references. […] UPLC was performed at a flow rate of 0.5 ml/min (monitored with a PDA from 210-500 nm) using a Waters C18 column. Absorbance spectra were recorded with a Thermo Scientific NanoDrop 2000 spectrophotometer with cuvette capability. Fluorescence excitation and emission spectra were measured with a Perkin Elmer LS-55 fluorescence spectrometer.
After eight rounds of SELEX at pH 8.0 using DFHBI-agarose, clones were identified that switched on DFHBI fluorescence. […]

[6] = Magnesium dependence of 24-2-DFHBI fluorescence; format: biochemical
Source text: FIGS. 3A-C illustrate the secondary structures of three RNAs: the original 24-2 structure (3A, SEQ ID NO: 5), a minimized structure 24-2-min (3B, SEQ ID NO: 7), and a first generation derivative of 24-2, designated “Spinach” (3C, SEQ ID NO: 6). RNA structure is shown as predicted by Mfold web-based software (Zuker, “Mfold Web Server for Nucleic Acid Folding and Hybridization Prediction,” Nucl. Acids Res. 31(13): 3406-3415 (2003), which is hereby incorporated by reference in its entirety). In FIG. 3A, bases that could be removed without significant loss in fluorescence are indicated in purple, which includes several bases from the largest loop and largest stem. A-U, G-U and any mismatched base pairs were mutated to G-C base pairs and tested for their effect on 24-2 fluorescence. G-C mutations that reduced 24-2 fluorescence are indicated in red, those which had no effect are indicated by asterisk (*), and those which increased the fluorescence of 24-2 are indicated in green. Base substitutions indicated by an asterisk (*) helped to validate structural predictions because substituting one base pair for another (e.g. A-U for G-C) had negligible effect or increased fluorescence. […] FIG. 3D illustrates the magnesium dependence of 24-2-DFHBI fluorescence. The fluorescence of the 24-2-DFHBI complex was measured at pH 7.4 in the presence of increasing magnesium concentrations. […]

Molecule: Cc1c(-c2cc(NS(=O)(=O)c3ccccc3Cl)n(C)n2)sc2ccc(Cl)cc12 [ML-60218]
- effect on 5S-Spinach fluorescence ([1]; Pol III inhibitor treatment): reduces 5S-Spinach fluorescence to baseline levels

Molecule: CCC(=C/[C@H](C)C/C=C/C(C)=C/[C@@H](C)C(=O)[C@@H](C)[C@H](O)[C@@H](C)C/C(C)=C/C(=O)O)/C=C/[C@@H]1OC(=O)C=C[C@@H]1C [leptomycin B]
- effect on 5S-Spinach localization ([1]; after washout of ML-60218): 5S-Spinach accumulates in the nucleus

Molecule: lucifer yellow
- absolute quantum yield of reference fluorophore [2]: 0.21

Molecule: SEQ ID NO: 16: mismatch stem-loop structure introduced into Spinach; three mismatched nucleotides prevent duplex formation (AUGCUUCGGACG; listed as RNA, chemistry not given here)
- DFHBI fluorescence of stem-loop 2 variant relative to Spinach / original stem-loop 2 [3]: reduces fluorescence intensity to baseline

Molecule: Cc1cc2cc3cc(C)c(N)cc3nc2cc1N [acridine yellow]
- absolute quantum yield of reference fluorophore [2]: 0.47

B1: SEQ ID NO: 8: derivative (minimized) Spinach sequence containing a shortened stem-loop 2 (nucleic acid)
chain: GACGCGACUGAAUGAAAUGGUGAAGGACGGGUCCAGCUGCUUCGGCAGCUUGUUGAGUAGAGUGUGAGCUCCGUAACUAGUCGCGUC
modifications: listed as RNA, chemistry not given here
- DFHBI fluorescence of stem-loop 2 variant relative to Spinach / original stem-loop 2 [3]: essentially identical fluorescence

B2: SEQ ID NO: 9: Spinach derivative with a replacement stem-loop at stem-loop 2 (nucleic acid)
chain: GACGCGACUGAAUGAAAUGGUGAAGGACGGGUCCAGGCACGAAAGUGCCUUGUUGAGUAGAGUGUGAGCUCCGUAACUAGUCGCGUC
modifications: listed as RNA, chemistry not given here
- DFHBI fluorescence of stem-loop 2 variant relative to Spinach / original stem-loop 2 [3]: did not reduce DFHBI fluorescence; also recorded: nearly identical fluorescence intensities

B3: guanine sensor: Spinach-based turn-on RNA sensor for guanine (nucleic acid)
chain: GACGCGACUGAAUGAAAUGGUGAAGGACGGGUCCAGAUAAUCGCGUGGAUAUGGCACGCAAGUUUCUACCGGGCACCGUAAAUGUCCGACUCUUGUUGAGUAGAGUGUGAGCUCCGUAACUAGUCGCGUC
modifications: chemistry not given here
- increase in fluorescence in the presence of guanine ([4]; 0.1 μM RNA, 10 μM DFHBI, 100 μM Gua, versus no guanine): 32 fold
- EC50 ([4]; dose-response, 10 μM fluorophore, read-out: half-maximal fluorescence (EC50), guanine): 1.5 µM

B4: 24-2: RNA aptamer clone from SELEX that switches on DFHBI fluorescence (nucleic acid)
chain: GGGAGACGCAACUGAAUGAAAUGGUGAAGGACGGGUCCAGGUGUGGCUGCUUCGGCAGUGCAGCUUGUUGAGUAGAGUGUGAGCUCCGUAACUAGUCGCGUCAC
modifications: listed as RNA, chemistry not given here
notes: RNA aptamer clone from SELEX that switches on DFHBI fluorescence
- emission peak [5]: 501 nm
- excitation peak [5]: 469 nm
- fraction of maximal fluorescence ([6]; 0.1 mM magnesium): greater than 50%
- magnesium concentration at maximal fluorescence ([6]; pH 7.4): 3 mM
